Our source for the Km values is paper PMC5820116 (SLAS discovery : advancing life sciences R & D, 2017).

Substrate in the data set: Nc1ncnc2c1ncn2[C@@H]1O[C@H](COP(=O)(O)OP(=O)(O)OP(=O)(O)O)[C@@H](O)[C@H]1O
Nature of the data set: ATP:PPi exchange steady-state kinetics. It counts as biochemical, Pseudomonas aeruginosa. The note with it: Mg2+ active region of the catalytic domain formed by the three structural motifs.

B1: Aspartyl-tRNA synthetase (AspRS) (Pseudomonas aeruginosa PAO1) (protein)
chain: MMRSHYCGQLNESLDGQEVTLCGWVHRRRDHGGVIFLDVRDREGLAQVVFDPDRAETFAKADRVRSEFVVKITGKVRLRPEGARNPNMASGSIEVLGYELEVLNQAETPPFPLDEYSDVGEETRLRYRFIDLRRPEMAAKLKLRARITSSIRRYLDDNGFLDVETPILGRPTPEGARDYLVPSRTYPGHFFALPQSPQLFKQLLMVAGFDRYYQIAKCFRDEDLRADRQPEFTQIDIETSFLDESDIIGITEKMVRQLFKEVLDVEFDEFPHMPFEEAMRRYGSDKPDLRIPLELVDVADQLKEVEFKVFSGPANDPKGRVAALRVPGAASMPRSQIDDYTKFVGIYGAKGLAYIKVNERAKGVEGLQSPIVKFIPEANLNVILDRVGAVDGDIVFFGADKAKIVCDALGALRIKVGHDLKLLTREWAPMWVVDFPMFEENDDGSLSALHHPFTSPKCTPAELEANPGAALSRAYDMVLNGTELGGGSIRIHDKSMQQAVFRVLGIDEAEQEEKFGFLLDALKYGAPPHGGLAFGLDRLVMLMTGASSIREVIAFPKTQSAGDVMTQAPGSVDGKALRELHIRLREQPKAE
One may read the Km as the substrate concentration at which the rate is half of its maximum. In the case of B1, the Km stood at 495 µM.
